B1: -005 (antibody, human IgG1, V domains shown)
VH: EVQLLESGGGLVQPGGSLRLSCAVSGFTFNSFAMSWVRQAPGKGLEWVSAISGSGGGTYYADSVKGRFTISRDNSKNTLYLQMNSLRAEDTAVYFCAKDKILWFGEPVFDYWGQGTLVTVSS
VL: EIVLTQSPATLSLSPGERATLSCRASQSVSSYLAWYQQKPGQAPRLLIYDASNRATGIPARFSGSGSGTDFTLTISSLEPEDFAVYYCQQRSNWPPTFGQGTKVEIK
B2: -024 (antibody, human IgG1, V domains shown)
VH: EVQLVQSGAEVKKPGESLKISCKGSGYSFSNYWIGWVRQMPGKGLEWMGIIYPHDSDARYSPSFQGQVTFSADKSISTAYLQWSSLKASDTAMYYCARHVGWGSRYWYFDLWGRGTLVTVSS
VL: EIVLTQSPATLSLSPGERATLSCRASQSVSSYLAWYQQKPGQAPGLLIYDASNRASGIPARFSGSGSGTDFTLTISSLEPEDFAVYYCQQRSNWPLTFGGGTKVEIK
notes: Human monoclonal IgG1 antibody; The recombinant form was cloned into pConG1f0.4 (human IgG1 constant region) and pConKappa0.4 (kappa constant region); also called antibody -024
B3: -003 (antibody, human IgG1, V domains shown)
VH: not shown
VL: DIQMTQSPSSLSASVGDRVTITCRASQGISSWLAWYQQKPEKAPKSLIYAASSLQSGVPSRFSGSGSGTDFTLTISSLQPEDFATYYCQQYNSYPRTFGQGTKVEIK
notes: Human monoclonal IgG1 antibody; The recombinant form was cloned into pConG1f0.4 (human IgG1 constant region) and pConKappa0.4 (kappa constant region); FITC-labelled in some assays; also called antibody -003; HuMab -003

Legend:
[1] = molecular target: His-CD38 (His-tagged extracellular domain of human CD38) (human, UniProt P28907 43-300); assay: cell-based or functional assay
[2] = molecular target: T1, human CD38 on cells (CHO-CD38 cells, Daudi-luc cells, fresh multiple myeloma tumor cells) (human, UniProt P28907 1-300); assay: cell-based or functional assay
[3] = molecular target: T1, human CD38 on cells (CHO-CD38 cells, …); assay: cell-based or functional assay; remark: listed apart in the source
[4] = molecular target: T2, cynomolgus monkey CD38 (on lymphoid tissue, lymphocytes and monocytes) (cynomolgus monkey, UniProt Q5VAN0 1-301); assay: immunohistochemistry on frozen cynomolgus tissue sections
T2 construct: whole, on cells; also called cynomolgus CD38

[5] = molecular target: T1, human CD38 on cells (CHO-CD38 cells, …); assay: flow cytometry on fresh MM tumor cells, FITC-labelled antibody
[6] = molecular target: T1, human CD38 on cells (CHO-CD38 cells, …); assay: flow cytometry on CHO-CD38 cells, anti-human IgG-FITC detection
[7] = molecular target: T1, human CD38 on cells (CHO-CD38 cells, …); assay: flow cytometry on Daudi-luc cells, anti-human IgG-FITC detection
[8] = molecular target: T1, human CD38 on cells (CHO-CD38 cells, …); assay: flow cytometry on CHO-CD38 cells, detection with rabbit anti-human IgG-FITC (Example 4)
[9] = molecular target: T1, human CD38 on cells (CHO-CD38 cells, …); assay: cell-based or functional assay; remark: listed apart in the source
[10] = molecular target: T1, human CD38 on cells (CHO-CD38 cells, …); assay: cell-based or functional assay; remark: listed apart in the source
[11] = molecular target: T3, HA-CD38 (HA-tagged extracellular domain of human CD38, wild type) (human, UniProt P28907 43-300); assay: SPR (Biacore 3000), antibody immobilized on CM-5 chip, HA-CD38 flowed over, 25° C., mean of 3 ± SD
T3 construct: also called HA-tagged CD38; wt human CD38; not shown: HA-tag introduced by the forward PCR primer, after signal peptide SPHMM

[12] = molecular target: T2, cynomolgus monkey CD38 (on lymphoid …); assay: flow cytometry on cynomolgus lymphocytes, detection with FITC-labeled rabbit anti-human IgG (Example 11)

Binder | cGDPribose production (% of NGD control), 0.03 µg/ml antibody [1] | cGDPribose production (% of NGD control), 0.3 µg/ml antibody [1] | cGDPribose production (% of NGD control), 3 µg/ml antibody [1] | cGDPribose production (% of NGD control), 30 µg/ml antibody [1] | EC50, ADCC of Daudi-luc cells (51Cr release) [2] [µg/mL] | EC50, ADCC of fresh MM tumor cells (51Cr release) [2] [µg/mL] | EC50, CDC of CD38-CHO cells (PI-positive cells) [3] [µg/mL] | EC50, CDC of Daudi-luc cells (PI-positive cells) [3] [µg/mL] | binding result [4] | EC50 [5] [µg/mL] | EC50 [6] [µg/mL] | EC50 [7] [µg/mL] | EC50 (read off the curve) [8] [µg/mL] | Log EC50 of lysis (table captioned CDC; the text ties log EC50 values to ADCC of Daudi cells) [9] | EC50 of lysis of CHO-CD38 cells (table captioned ADCC; the text ties these values to CDC) [10] [µg/mL] | Ka [11] [M⁻¹] | Kd [11] [nM] | binding result [12]
B1 | 102 % of NGD control | 98 % of NGD control | 66 % of NGD control | 68 % of NGD control | – | – | – | – | – | – | – | – | – | – | – | – | – | –
B2 | 105 % of NGD control | 104 % of NGD control | 100 % of NGD control | 99 % of NGD control | 0.0097 | 0.056 | 0.24 | > 90 | binds | 0.02 | 0.08 | 0.05 | ~0.2 | – | – | – | – | –
B3 | 107 % of NGD control | 107 % of NGD control | 100 % of NGD control | 99 % of NGD control | 0.009 | 0.027 | 3.14 | > 90 | – | 0.56 | 0.54 | 0.26 | – | 1.17 | 4.5 | 1.14e+09 | 0.885 | binds

From patent publication US20160130362A1 (Genmab, published 2016)
